The source of these data is patent publication US7514408.

The experiment addresses β-secretase (enzyme preparation not stated for the inhibitor assays) (human) (UniProt P56817). As to the kind of experiment: cell-based or functional assay.

Chain of β-secretase (enzyme preparation not stated for the inhibitor assays) (human) (P56817 46-501 limits assumed): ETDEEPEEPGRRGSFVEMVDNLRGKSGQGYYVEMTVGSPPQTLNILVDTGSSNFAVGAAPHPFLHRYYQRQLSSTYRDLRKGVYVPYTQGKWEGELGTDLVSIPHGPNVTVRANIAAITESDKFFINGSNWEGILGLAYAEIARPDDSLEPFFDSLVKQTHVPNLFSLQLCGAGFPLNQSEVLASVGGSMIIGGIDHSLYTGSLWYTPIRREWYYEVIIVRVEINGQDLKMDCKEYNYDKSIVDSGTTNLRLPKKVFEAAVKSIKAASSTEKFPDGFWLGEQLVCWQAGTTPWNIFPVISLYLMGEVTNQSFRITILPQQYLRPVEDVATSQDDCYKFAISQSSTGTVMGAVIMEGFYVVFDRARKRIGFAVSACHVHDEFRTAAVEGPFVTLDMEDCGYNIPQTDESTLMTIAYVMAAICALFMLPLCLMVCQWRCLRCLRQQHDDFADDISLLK

As for “Swedish mutant P13-P5′ peptide with P1′ aspartic acid replaced with a valine (D→V) (from UniProt P05067 659-676)”, the IC50 in an MBP M125 assay (inhibition of β-secretase activity) was determined as 3 µM and the enzyme inhibition relative to the Swedish sequence was determined as 100 times.
